± gives the standard deviation of the averaged measurements.
B1: library; a variant is named by its letters at N, in order (parent)
chain: GCUGUCACCGAGAAACUGUGAAGUAUAUCUUAAACCUGGGCACUUAAAAGAUAUAUGGAGUUAGUAGUGCAACCUGCUCGGUCUGAUGAGUCCNNNNNNGGACGAAACAGC

What was measured:
[1] = variants of: B1; test: normalized RNA/DNA level without ligand (relative to sTRSVctl = 100) (log10 (% of sTRSVctl)); HEK293T; ligand: cyclic di-GMP (c-di-GMP-II aptamer); higher = less ribozyme self-cleavage, higher mRNA level; details: reporter: mCherry (pCS4076), ligand present: no
Method in brief: (§1)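 Library plasmids encoding reporter-linked ribozyme switches (mCherry, or eGFP for some folinic acid experiments) were transfected into HEK293T at 4 µg per 6-well well. Ligand, when used, was added 1 h before transfection. Total RNA was extracted with EDTA 72 h later, then reverse-transcribed, amplified, barcoded and sequenced. RNA level was RNA reads over DNA reads, divided by a spiked-in non-cleaving control (or the top 25 sequences), ×100, log10; only sequences with ≥100 DNA reads were kept.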

[2] = variants of: B1; test: normalized RNA/DNA level with ligand (relative to sTRSVctl = 100) (log10 (% of sTRSVctl)); HEK293T; ligand: cyclic di-GMP (c-di-GMP-II aptamer); ligand concentration (+) RNA-Seq: 1 mM; higher = less ribozyme self-cleavage, higher mRNA level; details: reporter: mCherry (pCS4076), ligand present: yes
Method in brief: as §1

Variant | normalized RNA/DNA level without ligand (log10) [1] | normalized RNA/DNA level with ligand (log10) [2]
GCUGUCACCGAGAAACUGUGAAGUAUAUCUUAAACCUGGGCACUUAAAAGAUAUAUGGAGUUAGUAGUGCAACCUGCUCGGUCUGAUGAGUCCUGUACAGGACGAAACAGC | 1.778 ± 0.0071 | 1.88 ± 0.095
GCUGUCACCGAGAAACUGUGAAGUAUAUCUUAAACCUGGGCACUUAAAAGAUAUAUGGAGUUAGUAGUGCAACCUGCUCGGUCUGAUGAGUCCCGGAGGGGACGAAACAGC | 1.623 ± 0.014 | 1.82 ± 0.12
GCUGUCACCGAGAAACUGUGAAGUAUAUCUUAAACCUGGGCACUUAAAAGAUAUAUGGAGUUAGUAGUGCAACCUGCUCGGUCUGAUGAGUCCGUGUAAGGACGAAACAGC | 1.48 ± 0.027 | 1.67 ± 0.1
GCUGUCACCGAGAAACUGUGAAGUAUAUCUUAAACCUGGGCACUUAAAAGAUAUAUGGAGUUAGUAGUGCAACCUGCUCGGUCUGAUGAGUCCCUGCAUGGACGAAACAGC | 1.6242 ± 0.0013 | 1.77 ± 0.16
GCUGUCACCGAGAAACUGUGAAGUAUAUCUUAAACCUGGGCACUUAAAAGAUAUAUGGAGUUAGUAGUGCAACCUGCUCGGUCUGAUGAGUCCCACCUGGGACGAAACAGC | 1.76 ± 0.023 | 1.85 ± 0.06
GCUGUCACCGAGAAACUGUGAAGUAUAUCUUAAACCUGGGCACUUAAAAGAUAUAUGGAGUUAGUAGUGCAACCUGCUCGGUCUGAUGAGUCCUAUUCAGGACGAAACAGC | 1.8 ± 0.032 | 1.88 ± 0.053
GCUGUCACCGAGAAACUGUGAAGUAUAUCUUAAACCUGGGCACUUAAAAGAUAUAUGGAGUUAGUAGUGCAACCUGCUCGGUCUGAUGAGUCCACAGGAGGACGAAACAGC | 1.3 ± 0.067 | 1.41 ± 0.16
GCUGUCACCGAGAAACUGUGAAGUAUAUCUUAAACCUGGGCACUUAAAAGAUAUAUGGAGUUAGUAGUGCAACCUGCUCGGUCUGAUGAGUCCGCUAGGGGACGAAACAGC | 1.54 ± 0.12 | 1.7 ± 0.062
GCUGUCACCGAGAAACUGUGAAGUAUAUCUUAAACCUGGGCACUUAAAAGAUAUAUGGAGUUAGUAGUGCAACCUGCUCGGUCUGAUGAGUCCAAACGAGGACGAAACAGC | 1.39 ± 0.15 | 1.57 ± 0.097
GCUGUCACCGAGAAACUGUGAAGUAUAUCUUAAACCUGGGCACUUAAAAGAUAUAUGGAGUUAGUAGUGCAACCUGCUCGGUCUGAUGAGUCCGGUCGUGGACGAAACAGC | 1.66 ± 0.056 | 1.83 ± 0.036
GCUGUCACCGAGAAACUGUGAAGUAUAUCUUAAACCUGGGCACUUAAAAGAUAUAUGGAGUUAGUAGUGCAACCUGCUCGGUCUGAUGAGUCCGCUCCUGGACGAAACAGC | 1.71 ± 0.0058 | 1.85 ± 0.081
GCUGUCACCGAGAAACUGUGAAGUAUAUCUUAAACCUGGGCACUUAAAAGAUAUAUGGAGUUAGUAGUGCAACCUGCUCGGUCUGAUGAGUCCAUUUGCGGACGAAACAGC | 1.76 ± 0.038 | 1.87 ± 0.12
GCUGUCACCGAGAAACUGUGAAGUAUAUCUUAAACCUGGGCACUUAAAAGAUAUAUGGAGUUAGUAGUGCAACCUGCUCGGUCUGAUGAGUCCAUAACCGGACGAAACAGC | 1.75 ± 0.072 | 1.83 ± 0.1
GCUGUCACCGAGAAACUGUGAAGUAUAUCUUAAACCUGGGCACUUAAAAGAUAUAUGGAGUUAGUAGUGCAACCUGCUCGGUCUGAUGAGUCCGAGGGCGGACGAAACAGC | 1.66 ± 0.057 | 1.82 ± 0.077
GCUGUCACCGAGAAACUGUGAAGUAUAUCUUAAACCUGGGCACUUAAAAGAUAUAUGGAGUUAGUAGUGCAACCUGCUCGGUCUGAUGAGUCCAUAGUGGGACGAAACAGC | 1.56 ± 0.068 | 1.71 ± 0.083
GCUGUCACCGAGAAACUGUGAAGUAUAUCUUAAACCUGGGCACUUAAAAGAUAUAUGGAGUUAGUAGUGCAACCUGCUCGGUCUGAUGAGUCCUCGCUCGGACGAAACAGC | 1.742 ± 0.011 | 1.87 ± 0.14
GCUGUCACCGAGAAACUGUGAAGUAUAUCUUAAACCUGGGCACUUAAAAGAUAUAUGGAGUUAGUAGUGCAACCUGCUCGGUCUGAUGAGUCCGGAAAAGGACGAAACAGC | 1.3 ± 0.025 | 1.49 ± 0.12
GCUGUCACCGAGAAACUGUGAAGUAUAUCUUAAACCUGGGCACUUAAAAGAUAUAUGGAGUUAGUAGUGCAACCUGCUCGGUCUGAUGAGUCCCUGACAGGACGAAACAGC | 1.51 ± 0.086 | 1.7 ± 0.075
GCUGUCACCGAGAAACUGUGAAGUAUAUCUUAAACCUGGGCACUUAAAAGAUAUAUGGAGUUAGUAGUGCAACCUGCUCGGUCUGAUGAGUCCACUCGAGGACGAAACAGC | 1.52 ± 0.065 | 1.73 ± 0.11
GCUGUCACCGAGAAACUGUGAAGUAUAUCUUAAACCUGGGCACUUAAAAGAUAUAUGGAGUUAGUAGUGCAACCUGCUCGGUCUGAUGAGUCCCCCUAAGGACGAAACAGC | 1.45 ± 0.081 | 1.64 ± 0.13
GCUGUCACCGAGAAACUGUGAAGUAUAUCUUAAACCUGGGCACUUAAAAGAUAUAUGGAGUUAGUAGUGCAACCUGCUCGGUCUGAUGAGUCCCUGGCAGGACGAAACAGC | 1.638 ± 0.015 | 1.73 ± 0.14
GCUGUCACCGAGAAACUGUGAAGUAUAUCUUAAACCUGGGCACUUAAAAGAUAUAUGGAGUUAGUAGUGCAACCUGCUCGGUCUGAUGAGUCCUACGCCGGACGAAACAGC | 1.77 ± 0.021 | 1.87 ± 0.12
GCUGUCACCGAGAAACUGUGAAGUAUAUCUUAAACCUGGGCACUUAAAAGAUAUAUGGAGUUAGUAGUGCAACCUGCUCGGUCUGAUGAGUCCCUGUUGGGACGAAACAGC | 1.56 ± 0.035 | 1.69 ± 0.076
GCUGUCACCGAGAAACUGUGAAGUAUAUCUUAAACCUGGGCACUUAAAAGAUAUAUGGAGUUAGUAGUGCAACCUGCUCGGUCUGAUGAGUCCAUGCGCGGACGAAACAGC | 1.732 ± 0.016 | 1.86 ± 0.099
GCUGUCACCGAGAAACUGUGAAGUAUAUCUUAAACCUGGGCACUUAAAAGAUAUAUGGAGUUAGUAGUGCAACCUGCUCGGUCUGAUGAGUCCCGGUGGGGACGAAACAGC | 1.66 ± 0.066 | 1.79 ± 0.1
GCUGUCACCGAGAAACUGUGAAGUAUAUCUUAAACCUGGGCACUUAAAAGAUAUAUGGAGUUAGUAGUGCAACCUGCUCGGUCUGAUGAGUCCUUAGCGGGACGAAACAGC | 1.79 ± 0.032 | 1.86 ± 0.11
